From PMC12809078, “CtBP1/2 oligomerization promotes G9a-Mediated transcriptional repression” (The Journal of Biological Chemistry, 2025) come the findings set out here.

First the molecules themselves.
B1: full-length SUMO-CtBP2 (natural protein)
chain: not shown
notes: Named SUMO-CtBP2 in the pull-downs; also called SUMO-CtBP2-FL; CtBP2-FL; source: E. coli Rosetta 2 (DE3), purified (Ni-NTA); not shown: SUMO, N-terminal, kept

Holding throughout (details): both partners purified
In assay [1] the target is T1, His6-MBP-G9a^641-1193 (WT) (human, UniProt Q96KQ7 641-1193).
T1 construct: G9a (EHMT2), human, residues 641-1193 (ANK, Pre-SET and SET domains); also called WT G9a; source: E. coli, purified
T1 sequence (looked up): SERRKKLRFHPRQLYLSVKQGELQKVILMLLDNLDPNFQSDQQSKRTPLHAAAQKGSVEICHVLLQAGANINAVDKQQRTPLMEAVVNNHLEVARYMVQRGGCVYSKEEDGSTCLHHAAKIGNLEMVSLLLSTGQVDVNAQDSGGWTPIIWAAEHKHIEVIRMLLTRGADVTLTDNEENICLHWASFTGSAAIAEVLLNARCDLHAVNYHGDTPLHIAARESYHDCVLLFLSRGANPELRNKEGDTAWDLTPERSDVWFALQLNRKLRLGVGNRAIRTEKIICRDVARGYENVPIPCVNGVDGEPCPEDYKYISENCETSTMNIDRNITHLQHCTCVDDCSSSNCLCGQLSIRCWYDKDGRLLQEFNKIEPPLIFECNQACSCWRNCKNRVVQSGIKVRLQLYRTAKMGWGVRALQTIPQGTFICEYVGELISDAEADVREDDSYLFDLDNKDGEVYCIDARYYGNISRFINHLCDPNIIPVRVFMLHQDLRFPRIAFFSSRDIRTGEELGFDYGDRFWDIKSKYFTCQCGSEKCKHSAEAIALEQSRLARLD
The experiment in a line: pull-down; MBP pull-down of His6-MBP-G9a(641-1193) WT or Δ885–893 with full-length CtBP2; same procedure as the FLAG pull-down with the respective affinity resin.

The assay “full-length SUMO-CtBP2” deals with B1. The experiment in a line: pull-down; FLAG-tagged G9a (or GLP) fragments immobilised on anti-FLAG resin, incubated with CtBP protein 2 h at 4 °C; 50 mM Tris-HCl pH 8.0, 150 mM NaCl, 2 mM DTT, 0.1% NP-40; eluted with FLAG peptide, SDS-PAGE.
In the next assay the target is full-length SUMO-CtBP1 (human, UniProt Q13363 1-440). Described as above.
In another assay the target is T2, CtBP2 (residues 31–364) (human, UniProt P56545 31-364).
T2 construct: Tag-free by the methods; source: E. coli Rosetta 2 (DE3), purified (Ni-NTA, SUMO protease, SEC; ion exchange and gel filtration for crystals); not shown: His6, N-terminal, cleaved; SUMO, N-terminal, cleaved
The assay is described as above.

B1: the binding result in assay [1] is “binds”.

B2: SUMO-G9a^881–913-FLAG T891R (domain or fragment, human, UniProt Q96KQ7 881-913, looked up)
chain: NKEGDTAWDLRPERSDVWFALQLNRKLRLGVGN
notes: source: E. coli Rosetta 2 (DE3), purified; not shown: SUMO, N-terminal, kept; FLAG, C-terminal, kept
As for B2, the binding result with full-length SUMO-CtBP2 is recorded as “binds”.

B3: SUMO-G9a^881–913-FLAG P892E (domain or fragment, human, UniProt Q96KQ7 881-913, looked up)
chain: NKEGDTAWDLTEERSDVWFALQLNRKLRLGVGN
notes: as for B2
As for B3, the binding result with full-length SUMO-CtBP2 is given as “binds”.

B4: SUMO-G9a (881–913)-FLAG (domain or fragment, human, UniProt Q96KQ7 881-913, looked up)
chain: NKEGDTAWDLTPERSDVWFALQLNRKLRLGVGN
notes: also called Pre-SET fragment; G9a Pre-SET domain; not shown: SUMO, N-terminal, kept; FLAG, C-terminal, kept
For B4, the binding result in the assay with full-length SUMO-CtBP2, in the assay with full-length SUMO-CtBP1 and in the assay with CtBP2 (residues 31–364) was “binds” throughout.

B5: SUMO-G9a^881–1210-FLAG (domain or fragment, human, UniProt Q96KQ7 881-1210, looked up)
chain: NKEGDTAWDLTPERSDVWFALQLNRKLRLGVGNRAIRTEKIICRDVARGYENVPIPCVNGVDGEPCPEDYKYISENCETSTMNIDRNITHLQHCTCVDDCSSSNCLCGQLSIRCWYDKDGRLLQEFNKIEPPLIFECNQACSCWRNCKNRVVQSGIKVRLQLYRTAKMGWGVRALQTIPQGTFICEYVGELISDAEADVREDDSYLFDLDNKDGEVYCIDARYYGNISRFINHLCDPNIIPVRVFMLHQDLRFPRIAFFSSRDIRTGEELGFDYGDRFWDIKSKYFTCQCGSEKCKHSAEAIALEQSRLARLDPHPELLPELGSLPPVNT
notes: G9a (EHMT2), human, residues 881-1210; also called CD; G9a C-terminal catalytic domain; not shown: SUMO, N-terminal, kept; FLAG, C-terminal, kept
B5: the binding result in the assay with full-length SUMO-CtBP2 was “binds”.
